Laboratory results from paper PMC6075865.

Target: preformed binary t-SNARE complex of Syx 1a (amino acids 1-262) and SNAP25 (amino acids 1-206), O35526
Test: SDS-resistant SNARE complex formation (SDS-PAGE without boiling, Coomassie staining); t-SNAREs preformed 1 hr (syntaxin 1 3 uM, SNAP25 15 uM), peptide (50 uM) or none added for 30 min, then GST-SybII (3 uM); 25 C; 100 mM NaCl, 1 mM DTT, 1 mM EDTA, 0.5% Triton X-100, 20 mM Tris pH 7.4; time …
Conditions: other: SDS-resistant SNARE complex formation (SDS-PAGE without boiling, Coomassie staining)

preformed binary t-SNARE complex of Syx 1a (amino acids 1-262) and SNAP25 (amino acids 1-206), O35526, sequence (O35526 whole entry, looked up, the tested form may be a part, one chain of several): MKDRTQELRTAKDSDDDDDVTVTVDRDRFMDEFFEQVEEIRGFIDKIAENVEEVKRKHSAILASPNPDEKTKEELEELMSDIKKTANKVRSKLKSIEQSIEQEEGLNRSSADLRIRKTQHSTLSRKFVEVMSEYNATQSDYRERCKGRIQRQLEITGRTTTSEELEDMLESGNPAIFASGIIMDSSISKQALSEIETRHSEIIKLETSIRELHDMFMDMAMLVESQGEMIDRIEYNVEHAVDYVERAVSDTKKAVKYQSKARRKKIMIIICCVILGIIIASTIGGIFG

Protein	amount of assembled SNARE complexes (m10 with m11) after 240 min with 50 uM peptide, % of control	rate of SNARE complex assembly (m10 with m11) with 50 uM peptide, % of control
KVPYELGGQLPELKTSDPIEGEDEDELFMKEIAC [scrambled variant of the CpxII CTD peptide, in solution]	scr-peptide 88.8 ± 9.6	106.6 ± 16.7% of control
IPAGCGDEEEEEEESILDTVLKYLPGPLQDMFKK [CpxII CTD peptide (amino acids 101-134), in solution]	CTD-peptide 92.3 ± 9.1	51.4 ± 3.8% of control
